# Measured values published in patent US20230067770A1 (SHANGHAI HENLIUS BIOTECH, published 2023).
# Where a chain is given by its changes, count along the chain named. Names and notes keep the numbering of the source.
# B1: hybridoma anti-CD137 antibody clone 6.62 (antibody, V domains shown)
# VH: QIQLVQSGPELKKPGETVKISCKASGYSFTDYSIHWVKQAPGKGLKWMGWMNTETGEPAYADDFKGRFAFSLETAASTAYLQINHLRDEDTATYFCTRSSYGYFDYWGQGTTLTVSS
# VL: DVVMTQTPLSLPVSLGDQAAISCRSSQTLEHINGNTYLEWYLQKPGQSPKLLIYKVSDRFSGVPDRFSGSGSGTGFTLKISRVEAEDLGVYYCFQGSHFPLTFGGGTKLELK
# notes: Tested as hybridoma supernatant
# B2: aCD137-scFv-αEGFR-IgG1-Linker7 (bispecific antibody)
# heavy: not shown
# light: EIVLTQSPATLSLSPGERATLSCRASQSIGTNIHWYQQKPGQAPRLLIKYASESISGIPARFSGSGSGTDFTLTISSLEPEDFAVYYCQQNNNWPTSFGGGTKVEIKRTVAAPSVFIFPPSDEQLKSGTASVVCLLNNFYPREAKVQWKVDNALQSGNSQESVTEQDSKDSTYSLSSTLTLSKADYEKHKVYACEVTHQGLSSPVTKSFNRGEC
# notes: also called Anti-EGFR HC-anti-CD137 scFv-IgG1-Linker 7 (HCC)
# B3: aCD137-scFv-αEGFR-IgG1-Linker 10 (bispecific antibody)
# heavy: not shown
# light: B2 light
# B4: aCD137-scFv-αEGFR-IgG1-LALA-Linker 10 (bispecific antibody)
# heavy: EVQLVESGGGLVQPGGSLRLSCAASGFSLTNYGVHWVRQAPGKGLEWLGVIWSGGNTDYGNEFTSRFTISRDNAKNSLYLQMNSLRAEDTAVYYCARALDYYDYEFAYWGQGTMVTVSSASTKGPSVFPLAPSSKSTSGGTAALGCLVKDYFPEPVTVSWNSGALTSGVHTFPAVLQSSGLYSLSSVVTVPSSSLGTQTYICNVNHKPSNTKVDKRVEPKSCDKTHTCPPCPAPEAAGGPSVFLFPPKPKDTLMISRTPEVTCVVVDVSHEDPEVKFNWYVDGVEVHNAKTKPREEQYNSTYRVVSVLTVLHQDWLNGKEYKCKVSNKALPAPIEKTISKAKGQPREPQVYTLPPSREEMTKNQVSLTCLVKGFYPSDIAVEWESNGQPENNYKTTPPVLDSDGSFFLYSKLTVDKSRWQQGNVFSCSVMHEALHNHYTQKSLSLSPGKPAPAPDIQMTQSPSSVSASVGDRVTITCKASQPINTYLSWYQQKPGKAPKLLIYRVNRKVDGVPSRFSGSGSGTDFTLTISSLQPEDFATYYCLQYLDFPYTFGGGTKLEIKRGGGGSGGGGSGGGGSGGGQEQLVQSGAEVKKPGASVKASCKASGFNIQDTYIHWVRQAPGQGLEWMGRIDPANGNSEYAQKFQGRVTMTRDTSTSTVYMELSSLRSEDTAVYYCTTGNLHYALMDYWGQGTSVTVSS
# light: B2 light
# notes: The Linker 10 bispecific with the LALA mutation in the IgG1 Fc; also called Anti-EGFR HC-anti-CD137 scFv-IgG1 LALA-Linker 10 (HCC)
# B5: aCD137scFv-αEGFR-IgG1-LALA (Linker 7) (bispecific antibody)
# heavy: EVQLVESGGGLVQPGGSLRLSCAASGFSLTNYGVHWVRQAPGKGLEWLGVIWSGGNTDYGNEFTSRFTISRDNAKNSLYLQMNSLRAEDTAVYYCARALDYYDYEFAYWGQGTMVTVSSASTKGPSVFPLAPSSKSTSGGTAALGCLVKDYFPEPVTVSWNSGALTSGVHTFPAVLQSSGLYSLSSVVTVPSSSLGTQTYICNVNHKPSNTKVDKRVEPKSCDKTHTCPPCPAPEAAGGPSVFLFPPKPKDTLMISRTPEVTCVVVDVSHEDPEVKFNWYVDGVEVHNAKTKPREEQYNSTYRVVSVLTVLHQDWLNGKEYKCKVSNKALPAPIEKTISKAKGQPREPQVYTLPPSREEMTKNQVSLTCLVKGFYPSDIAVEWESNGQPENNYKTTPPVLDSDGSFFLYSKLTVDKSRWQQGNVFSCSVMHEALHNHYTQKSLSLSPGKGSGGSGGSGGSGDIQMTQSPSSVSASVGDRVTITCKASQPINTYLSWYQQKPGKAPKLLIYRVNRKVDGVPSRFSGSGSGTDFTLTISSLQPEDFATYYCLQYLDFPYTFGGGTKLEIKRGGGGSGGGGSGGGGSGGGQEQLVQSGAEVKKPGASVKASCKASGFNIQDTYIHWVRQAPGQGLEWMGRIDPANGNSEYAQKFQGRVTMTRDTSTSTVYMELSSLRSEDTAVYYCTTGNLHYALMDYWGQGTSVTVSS
# light: B2 light
# notes: The Linker 7 bispecific with the LALA mutation in the IgG1 Fc; also called Anti-EGFR-HC-anti-CD137 scFv-IgG1-LALA-Linker 7 (HCC); αCD137scFv-αEGFR-IgG1 LALA
# B6: Clone 23 (Fab in supernatant) (Fab, V domains shown)
# VH: QVQLVQSGAEVKKPGASVKVSCKASGFNIKDTYIHWVRQAPGQGLEWMGKIDPANGQTEYAQKFQGRVTMTRDTSTSTVYMELSSLRSEDTAVYYCTTGNLHYALMDYWGQGTSVTVSS
# VL: DIQMTQSPSSVSASVGDRVTITCKASQAINTYLSWYQQKPGKAPKLLIYRANRMVGGVPSRFSGSGSGTDFTLTISSLQPEDFATYYCLQYRDFPYTFGGGTKLEIKR
# notes: Screened as Fab in supernatant
# B7: Clone 33 (Fab in supernatant) (Fab, V domains shown)
# VH: B6 VH with H35Q, Q57N, E59M
# VL: B6 VL with A28T, V55P, G56D, R92D
# notes: as for B6
# B8: Clone 20 (Fab in supernatant) (Fab, V domains shown)
# VH: B6 VH with I29M, Q57D
# VL: B6 VL with M54A, G56D, R92L
# notes: as for B6
# B9: Clone 25 (Fab in supernatant) (Fab, V domains shown)
# VH: B6 VH with K30Q, K50R, Q57N, T58S, A104G
# VL: B6 VL with A51D, M54K, G56D, R92Q, T97K
# notes: as for B6
# B10: Clone 35 (Fab in supernatant) (Fab, V domains shown)
# VH: B6 VH with K30N, K50R, Q57Y
# VL: B6 VL with N30A, G56D, Y91F, R92Q
# notes: as for B6
# B11: Clone 19 (Fab in supernatant) (Fab, V domains shown)
# VH: B6 VH with I29M, Q57A, A104G
# VL: B6 VL with V55G, G56D, Y91S, R92D
# notes: as for B6
# B12: Clone 9 (Fab in supernatant) (Fab, V domains shown)
# VH: B6 VH with I29L, Q57N
# VL: B6 VL with N30A, V55Y, G56D, Y91F, R92D
# notes: as for B6
# B13: Clone 2-11 (Fab in supernatant) (Fab, V domains shown)
# VH: B6 VH with Q57G
# VL: B6 VL with A28P, A51V, M54K, G56D, R92V
# notes: as for B6
# B14: Clone 18 (Fab in supernatant) (Fab, V domains shown)
# VH: B6 VH with K23Q, E46G, Q57M, M70V
# VL: B6 VL with I29P, G56D, R92E
# notes: as for B6
# B15: Clone 3 (Fab in supernatant) (Fab, V domains shown)
# VH: B6 VH with I29P, K50R, Q57F
# VL: B6 VL with G56D, P80H, Y91S, R92D
# notes: Screened as Fab in SS320 culture supernatant
# B16: Clone 5 (Fab in supernatant) (Fab, V domains shown)
# VH: B6 VH with K30R, Q57N, A104G
# VL: B6 VL with L33H, A51V, G56D, R92L
# notes: as for B6
# B17: hybridoma anti-CD137 antibody clone 3.10 (antibody, V domains shown)
# VH: EVQLVESGPGLVAPSQSLSITCTVSGFSLTTYDVSWIRQPPGKGLEWLGVIWTGGGTNYNSTFMSRLTISKDNSKNQVFLKMNSLQTDDTATYYCVRVDYWGQGTTLTVSR
# VL: DVVMTQTPLSLPVSLGGHASISCRSSQSLVHNNGNTYLHWFLQKPGQSPKLLIYKVSNRFSGVPDRFSGSGSGTDFTLKISRVEAEDLGVYFCSQNAHVPWTFGGGTKLEIKR
# notes: as for B1
# B18: 2-9-1 IgG1 SELF (antibody)
# heavy: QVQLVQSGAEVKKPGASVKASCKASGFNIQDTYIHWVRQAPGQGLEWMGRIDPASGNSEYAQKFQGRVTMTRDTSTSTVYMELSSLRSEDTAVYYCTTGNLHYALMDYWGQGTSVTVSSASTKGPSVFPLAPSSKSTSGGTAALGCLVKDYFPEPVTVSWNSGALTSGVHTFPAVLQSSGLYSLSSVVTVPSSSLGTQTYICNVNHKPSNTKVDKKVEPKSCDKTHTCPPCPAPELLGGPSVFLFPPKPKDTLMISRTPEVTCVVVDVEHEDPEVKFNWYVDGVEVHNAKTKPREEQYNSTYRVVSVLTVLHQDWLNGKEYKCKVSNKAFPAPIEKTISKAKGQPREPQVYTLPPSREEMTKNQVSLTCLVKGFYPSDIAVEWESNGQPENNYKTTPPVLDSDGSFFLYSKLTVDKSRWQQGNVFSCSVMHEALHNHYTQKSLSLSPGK
# light: DIQMTQSPSSVSASVGDRVTITCKASQPINTYLSWYQQKPGKAPKLLIYRVNRKVDGVPSRFSGSGSGTDFTLTISSLQPEDFATYYCLQYLDFPYTFGGGTKLEIKRTVAAPSVFIFPPSDEQLKSGTASVVCLLNNFYPREAKVQWKVDNALQSGNSQESVTEQDSKDSTYSLSSTLTLSKADYEKHKVYACEVTHQGLSSPVTKSFNRGEC
# notes: Subclone of 2-9 with an IgG1 Fc carrying S267E/L328F; also called clone 2-9-1 IgG1 SELF; Clone 2-9 IgG1 SELF
# B19: 2-9-2 IgG4 (antibody)
# heavy: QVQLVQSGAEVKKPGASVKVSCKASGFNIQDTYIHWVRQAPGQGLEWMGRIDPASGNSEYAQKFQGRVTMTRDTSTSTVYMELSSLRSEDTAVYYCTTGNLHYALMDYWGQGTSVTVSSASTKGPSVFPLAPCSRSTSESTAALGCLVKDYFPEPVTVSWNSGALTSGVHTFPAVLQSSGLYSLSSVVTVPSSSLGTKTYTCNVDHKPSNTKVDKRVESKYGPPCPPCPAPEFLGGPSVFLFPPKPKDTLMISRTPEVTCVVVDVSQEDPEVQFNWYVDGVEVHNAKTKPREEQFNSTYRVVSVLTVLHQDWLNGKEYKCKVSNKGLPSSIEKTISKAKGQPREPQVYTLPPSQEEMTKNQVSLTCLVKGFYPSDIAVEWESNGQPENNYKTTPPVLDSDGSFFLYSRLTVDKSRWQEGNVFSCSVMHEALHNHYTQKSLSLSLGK
# light: B18 light
# notes: Subclone of 2-9; also called clone 2-9-2 IgG4 wt
# B20: hybridoma anti-CD137 antibody clone 29.39 (antibody, V domains shown)
# VH: EVKLMESGAELVKPGASVKLSCTASGFNIKDTYIHWVKQRPEQGLEWIGKIDPANGNTEYDLNFQGRATITADTSSNTAYLQLSSLTSEDTAVYYCTTGNLHYYLMDYWGQGTSVTSLE
# VL: DIVMTQSPSSMYASLGERVTITCKASQAINTYLSWFQQKPGKSPKTLIYRANRMVDGVPSRFSGSGSGQDYSLTISSLDYEDMGIYYCLQYDDFPYTFGGGTKLEIKR
# notes: as for B1
# B21: hybridoma anti-CD137 antibody clone 44.21 (antibody, V domains shown)
# VH: B20 VH
# VL: B17 VL with V2I, G17D, N32S, L109R, E110K, I111S, K112N, R113E
# notes: as for B1
# B22: hybridoma anti-CD137 antibody clone 30.19 (antibody, V domains shown)
# VH: B1 VH
# VL: B20 VL
# notes: as for B1
# Legend:
# [1] = molecular target: T1, human CD137-Fc fusion protein (human, UniProt Q07011 24-186, limits assumed); assay: ELISA, hybridoma supernatant on plates coated with human CD137-Fc fusion protein
# T1 construct: also called huCD137
# Description: Hybridoma screening. Detection of binding to huCD137 by ELISA: To identify hybridomas secreting anti-human CD137 antibodies, ELISA plates (Corning) were coated with human CD137-Fc fusion protein at 1 μg/ml in PBS overnight at 4° C. […] Thirty microliters of supernatants diluted 1:3 in PBS were added to the plates and incubated for 1-2 hour at ambient temperature. Afterwards, the plates were washed as before, and binding of antibodies was detected through Horseradish peroxidase (HRP)-conjugated goat F(ab′)2 anti-human IgG. The plates were developed with TMB and read at 450 nm.
# [2] = molecular target: T2, EGFR on SK-Hep1 cells (UniProt P00533 25-1210, limits assumed); assay: flow cytometry, whole cell binding to SKHep1 EGFR high cells, Alexa Fluor 488 anti-human IgG F(ab')2 secondary, median fluorescence intensity
# T2 construct: whole, on cells; also called EGFR positive SK-Hep1 tumor cells; EGFR high SK-Hep1 cells
# Description: (§1) The binding affinity of bispecific antibodies to cell surface receptors was also quantified in whole cell binding assay. […] Afterwards, cells were washed with PBS twice and then incubated with secondary Alexa Fluor® 488 AffiniPure Goat Anti-Human IgG, F(ab′)2 fragment specific antibody (Jackson ImmunoResearch, Code 109-545-006) for 30 min at 4° C. in FACS buffer. The cells were then washed with PBS twice and resuspended in FACS buffer. […] The median fluorescence intensity was fitted using a non-linear model with GraphPad 8.0.
# (§2) The anti-CD137×EGFR bispecific antibodies included variants with IgG1 wild type Fc, IgG1 Fc with LALA mutation and different linkers.
# [3] = molecular target: T3, CD137 on CD137 stably transfected 293T cells (UniProt Q07011 24-255, limits assumed); assay: flow cytometry, whole cell binding to CD137/NFkB 293T cells, Alexa Fluor 488 anti-human IgG F(ab')2 secondary, median fluorescence intensity
# T3 construct: whole, on cells; also called CD137/NF-κB reporter cells
# T3 sequence (Q07011 24-255 limits assumed): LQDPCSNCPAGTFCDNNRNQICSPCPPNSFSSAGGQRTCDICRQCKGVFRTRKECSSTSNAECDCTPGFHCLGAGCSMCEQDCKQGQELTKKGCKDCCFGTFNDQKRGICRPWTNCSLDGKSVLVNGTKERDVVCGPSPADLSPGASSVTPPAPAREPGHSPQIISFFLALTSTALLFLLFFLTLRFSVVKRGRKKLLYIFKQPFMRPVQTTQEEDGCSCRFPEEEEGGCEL
# Description: as §1, §2
# [4] = molecular target: T4, human-CD137 (ELISA antigen of the affinity maturation screen) (human, UniProt Q07011 24-186, limits assumed); assay: ELISA of Fab in supernatants after phage panning
# T4 construct: also called human-CD137 ECD
# [5] = molecular target: T5, Human CD137-his (human, UniProt Q07011 24-186); assay: BLI (Octet), second round, antibody captured on AHC sensor
# T5 construct: Bought reagent; also called Human CD137-His (Sino Biological, 10041-H08H)
# Description: (§3) Biolayer interferometry was used to measure the association and dissociation constants for the binding kinetics of the anti-CD137 antibodies. The binding kinetics was measured on a FortieBio Octet Red 96 at 30° C. and analyzed with the FortieBio Data Analysis 9.0 software. Anti-human-IgG Fc (AHC) sensor was used to capture the anti-CD137 antibodies or control antibodies. A kinetic buffer only well was set as a reference well for subtraction during data processing. Data were fitted with a 1:1 Langmuir model for association and dissociation using Rmax linked global fitting for each antibody-antigen binding. Human CD137-his is a recombinant CD137 antigen with a poly histidine tag fused to C-terminus of human CD137 antigen (Sino Biological, 10041-H08H). Cyno CD137-his is a recombinant CD137 antigen with a poly histidine tag fused to C-terminus of cynomolgus CD137 antigen (Sino Biological, 90847-K02H-100).
# [6] = molecular target: T5, Human CD137-his; assay: BLI (Octet), third comparison, antibody captured on AHC sensor
# Description: as §3
binder,measurement,setting,value
B1,binding result,[1],binds
B2,EC50 (read off the curve),[2],~0.3 nM
same,EC50 (read off the curve),[3],~10 nM
B3,EC50 (read off the curve),[2],~0.3 nM
same,EC50 (read off the curve),[3],~10 nM
B4,EC50 (read off the curve),[2],~0.2 nM
same,EC50 (read off the curve),[3],~10 nM
B5,EC50 (read off the curve),[2],~0.2 nM
same,EC50 (read off the curve),[3],~10 nM
B6,binding result,[4],binds
B7,binding result,[4],binds
B8,binding result,[4],binds
B9,binding result,[4],binds
B10,binding result,[4],binds
B11,binding result,[4],binds
B12,binding result,[4],binds
B13,binding result,[4],binds
B14,binding result,[4],binds
B15,binding result,[4],binds
B16,binding result,[4],binds
B17,binding result,[1],binds
B18,Kd,[5],6.55 nM
same,koff,[5],0.00034 s⁻¹
same,kon,[5],52000 M⁻¹ s⁻¹
same,Kd,[6],11.1 nM
same,koff,[6],0.0006 s⁻¹
same,kon,[6],54100 M⁻¹ s⁻¹
B19,Kd,[6],12.9 nM
same,koff,[6],0.000801 s⁻¹
same,kon,[6],62200 M⁻¹ s⁻¹
B20,binding result,[1],binds
B21,binding result,[1],binds
B22,binding result,[1],binds
